{"source": "the DeepSol protein solubility set", "data": [{"assay": "soluble on expression in E. coli; label from the status in PepcDB or PDB records", "values": [{"sequence": "MGEREGRVDSLLDTLYNLSEEKEAFFITQKMKKLFSVKLSKSKVILVAACLLLAGSGTAYAAHELTKQSVSVSINGKKKHIRTHANTVGDLLETLDIKTRDEDKITPAKQTKITADMDVVYEAAKPVKLTINGEEKTLWSTAKTVGALLDEQDVDVKEQDQIDPAIDTDISKDMKINIEPAFQVTVNDAGKQKKIWTTSTTVADFLKQQKMNIKDEDKIKPALDAKLTKGKADITITRIEKVTDVVEEKIAFDVKKQEDASLEKGKEKVVQKGKEGKLKKHFEVVKENGKEVSRELVKEETAEQSKDKVIAVGTKQSSPKFETVSASGDSKTVVSRSNESTGKVMTVSSTAYTASCSGCSGHTATGVNLKNNPNAKVIAVDPNVIPLGSKVHVEGYGYAIAADTGSAIKGNKIDVFFPEKSSAYRWGNKTVKIKILN", "soluble on expression in E. coli": "soluble"}, {"sequence": "MIPMSETKNELEILLEKAATEPAHRPAFFRTLLESTVWVPGSAAEGEAIVEDSALDLQHWEKEDGTTVIPFFTSLEALQQAVEDEQAFVVMPARTLFEMTLGETLFLNAKLPTGKEFMPREISLLLAEEGSPLSTQEVLEGGESLILSEVAEPPSQMIDSLTTLFKTIKPVKRAFLCAIKEHADAQPNLLIGIEADGEIEEIIHAAGNVATDTLPGDEPIDICQVRKGEQGISHFITEHIAPFYERRWGGFLRDFKQNRII", "soluble on expression in E. coli": "not soluble"}, {"sequence": "MAGTVEGEKIDVGFAGKRCIHSRNCVLGDPHVFVPNAPGQWIHPDAASVEKIVAIAESCPSGAITYVRKDGGPQEQPPVVNTVRLRENGPLAVHAEIVLDGETFYRATLCRCGASENKPFCDGSHGKAGFTATGEPALKDAPALEARNGPLKVTPTTNGPLKLEGNVEIVTGTGHTIDRTQRTFLCRCGHSANKPFCDGSHKKIGFVA", "soluble on expression in E. coli": "not soluble"}, {"sequence": "MAIDNIKAYVHLSDADIEEIGRRLDQIKAEVTQSLGARDVAYIKRLIRTQRSLEAAGRFALLFAGNKKCWWLGTGLLSTAKILENLEIGHNVLHGQWDWMNDPEIHSTTWEWDIVCPSSQWMHSHNFVHHTYTNVLGMDNDVGYGILRVTRDRKWTPLHAFQPAVNTVLAAMFQWAVGYYDVELGRYLTKRADWNDTKDKFWETTNKAGRQLARDYVFYPALARKAFPQAVKANAVANLVRSVWAYSVIFCGHFPDEAETFTKEQFKNEDHNQWYLRQMLGSANFYGGKLLTIMSGNLNYQIEHHLFPDMPSNRLAEVGEKVRALCDEYDLPYNVDSFPAQLFKVQKTLLKLTLPNKYLVASPDNAPEVRSNRAFSQNPEIENQLAGGSNGSGLRTGLKLLKRLRPSIKDAILIYSGRKPRGNQQR", "soluble on expression in E. coli": "not soluble"}, {"sequence": "MAHHHHHHMPVIKEYINPAGLRLDGRRPNEPRRLALEFGKISGCDGCCTVVSGLSHVCATVYGPREVSNRLEGKYNEVTITCDVVVAAFAGERRREQQRYSRLSEDISASVLDVARSVVLLSQYPNSQIHICIEVLKQDGSDKAACINAACLALIDASIAMKDVVYTQTVGLIEGFDVVDLTTEEIHSQCPSICITVQGHDPTNIVWMESNSRLAPEVITRLVKVAQKASTDVFETALRGPLEEHAATVLRLQANLGNIE", "soluble on expression in E. coli": "soluble"}, {"sequence": "MNSCWAKGKLMCEGRPASGVKVKLMESDNSFLPGFLDRDDKMASGKADSNGEFNLSGSTKEITGIEPYLAVFHDCKDGITPCQRVLRINIPKSYANWGSSAEKTFNAGNLELAGKFPGETRSCFN", "soluble on expression in E. coli": "not soluble"}, {"sequence": "MGSDKIHHHHHHMLKPDRLRALAEALTRQNVMRLRDAAGLLGVSEMTVRRDIAGSPERFTYLGGYIVSATDVPNNAGYSLEEEKDHFAQAKAEASAVAAGLIGNNETLFIDCGTTLTTLARLIPLERHVTVVCYSLNVAEILRRKPNVRMILLGGVYVPSSDSFAGEESLEMLRRMGINKAFISAGGVDTARGVTCWNFHEVALKQAAMASAVERHLVVDQSKFGVVKAVRFSQVDDFDSIITEKGQQLRKRR", "soluble on expression in E. coli": "not soluble"}, {"sequence": "MIRVACVGITVMDRIYYVEGLPTESGKYVARNYTEVGGGPAATAAVAAARLGAQVDFIGRVGDDDAGNSLLAELESWGVNTRYTKRYNQAKSSQSAIMVDTKGERIIINYPSPDLLPDAEWLEEIDFSQWDVVLADVRWHDGAKKAFTLARQAGVMTVLDGDITPQDISELVALSDHAAFSEPGLARLTGVKEMASALKQAQTLTNGHVYVTQGSAGCDWLENGGRQHQPAFKVDVVDTTGAGDVFHGALAVALATSGDLAESVRFASGVAALKCTRPGGRAGIPDCDQTRSFLSLFV", "soluble on expression in E. coli": "not soluble"}, {"sequence": "MNQVTTYLWETHLPGGSHWSGVVRRGTTLRLTDVSGGANAAVLFYNLEEKLERYNMADTLKTQHTFCLTKGHACHSDMGRIFCCITEDTAGWHDTVCGLSDAELIQQKYGTGRYQELRNDMYRNGLDGMLVELGKWGLGRRDVVSNINFFSKVTANSVGELQFHVSHSKAGDHVDLAFAMDTLVVLSAAPHPLDPAATYRPGAVNLAVFPSTPAVTGACAHIAENARGLENTRRLYAYGGVKLEHHHHHH", "soluble on expression in E. coli": "soluble"}, {"sequence": "MNVKSRQQENAEATREALLESALSAFIEHGYGGVSIDAIAREARVTKGAFYHHFGSKQELLAECYERQVRTIAEDLDRVPAHVDKWAEAAALAEAFIDSVMARGKRQLSLQEVITVVGWERWKRIDSRHTLRYVGRLVDELAASGELKDYRRETLVGQLYGFLTQAAMSLRDARNKRQAANEVKAIIRDFLYSLRRG", "soluble on expression in E. coli": "not soluble"}, {"sequence": "MGSDKIHHHHHHMSFNIGLSGIQAASSGLNVTGNNIANAGTVGFKQSRAEFADVYAASVLGSGSNPQGSGVLLSDVSQMFKQGNIDSTNSVLDLAINGNGFFVTSNNGAISYTRAGYFNTDKQDFIVDNNGYRLQGYAVGPNGQLQNGVVTDLKVERANQAPQATSSIQQSYNLNSTLKPPTVTPFDPSDAATYNSSSSLGIYDSQGNSHTMSQFFIKNEPDPNATPPIPENSWTMKVLIDGVNPLDPSNKTPMSFNVTFDASGQMTSVRAPDGSTSGPGFSIDATTNVIQFSPATGNPPTPGTGWIPAASDGKTPPTYAWNGATGAASGISFDMRKTTQYSTAFAQSNPIQDGYTTGQLAGLEIDDTGVIFARYTNGQSKVQGQVVLANFANIQGLTPIGKTSWVQSSESGEPAVGAPRSGTLGALQSGALEASNVDISNELVNLIVHQRNYQANAKTIQTEDAVTQTIINLR", "soluble on expression in E. coli": "not soluble"}, {"sequence": "MFRVTCIDLENGEFALYINGHYLSSEDGSGEKLYLGDILERLSRLPGVTTETVERPVPDSDEWSWNDVADSVFPACITLSRNMTVAAFKQRLSRFPDDALCCGTFWLASDFLALDSSLTEDDIDAAMELAQHCHDANDGFNWSHLQWAIDEVKRGG", "soluble on expression in E. coli": "not soluble"}, {"sequence": "MGSDKIHHHHHHDPLESMNRGIYKFNDTADKAVLKPIAGAYKAVLPSPIRTGVNNFFTNLGTFTSLVNNILQLELGKAMDNTGRLLINSTIGIGGLVDVASMDGVPNHRADFGQTLGKWGVGSGAYLVLPFLGPSTLRDTAGLTIDTLYFDPIQYTNHVRERNQLRMLSFIDLRSQYLPASDLIDDAALDPYIFMREAYLERRHQFVTGEASSFDDFDDDDEEVTPPEPQ", "soluble on expression in E. coli": "not soluble"}, {"sequence": "MSLTFYWYPKCGTCRKAKKWLEEHGKEINEIHIAEQPPSKEELKALYEKSGLDLKKFFNTSGMKYRELNLKEKLYHMSEDEQLELLASDGMLIKRPLTTDGEKVTVGFKEDQFEENWA", "soluble on expression in E. coli": "not soluble"}, {"sequence": "QAVGGKIADDAQKVAGLYAEKKRTNWTQANGVAGKISHKIQSLLGMRDAGSRVQAFVAFMADGKGRPGATMLDLGDGWMRATRVIKGEAALIDFQCDSDGKVVDARHPGRFPVLPQGNEREAFKTVLQELKFRGAETLSKVPVYYVNRNTRGYVIPTHGYVVAGHPNRGRKSGAVLYGVGGDPKRGPVALDEKLLGHLVGRSDSKTSSKLSAPVKAAISALAGASFATREDFYDAYCAVRGDAVDPLERHNEISSIYRLLPLSTMEMWPKKADDYRVARPAAPERDLRAFENLPKDIGRKAQLKKVSNVDSIDLLEAKRQFTLHQLYQDEMLGRNGTGVPSADFKPKVDAQRRDQLVASTPKFQRLPPHTTDKVGNCNTGASSLLQRAVDTYTEKNNLPPEKVTAASIFGIGSSHRLAIWDPLDGSSSNKSSKDR", "soluble on expression in E. coli": "not soluble"}, {"sequence": "MGSDKIHHHHHHMRPAFAGIDFGTSNSTVGVVRNGQPHLVALEGGQVTLPSAVFFNFEDGRICFGRQAIANYTDSVEGRLMRSLKSVLGSSLAHEKTRIKARSIGFMEIIGLFLGHLRKKLEEDGGDLVETVVLGRPVQFVDDDPQADANAQSDLEKAAHAQGFKHIAFQFEPIAAALDYEQRVTREELALIIDMGGGTSDFSVVRVSPERARLPDRKDDILASRGVHIGGTDFDRLLSIAHVMPQLGYLTPTKDGKRNLPASYFIDLATWQRINLVYTAKAMTHLRQIRYEAARADLVDRFIHIVEHRYGHALAALVEKAKIELTDLSSAEVAVRLSDVEFAAEITRDGLDATIAREIERVTATVAETMRDAAVKPSDITAVFLTGGSTAIPLARREILSLVPQASVIDGDMFGSVGLGLALDAQRKFG", "soluble on expression in E. coli": "not soluble"}, {"sequence": "LSITDCRGAPLYEFRYPQQFYATFASVPPLLVHSLLFIENRDLLDPQQPLANPAVDWPRFVKAAWSQVAKMFALPGQSAGGSTLATQLEKYRHSPDGLTQSGSEKLRQMISASVRAYQPGAETLEVRQRVVRDYLNSVPLSAVPGHGEVHGLAEGLRVWFGVDFARTNQLLASGPTDQQGLADKALALREVLSLVIAQRRPSHYLAK", "soluble on expression in E. coli": "not soluble"}, {"sequence": "MTQVIIDGDACPVTNSIIELTKGTGIFVTVVRSFSHFSTVIQPEHVNIIYVDDGPDAVDYRIVKLVHSDDLVVTQDYGLASLLLNKAKIVMHHKGFIYNQENINTLLEQRHASAQFRKSGLEHHHHHH", "soluble on expression in E. coli": "not soluble"}, {"sequence": "MKITKLETVRVAERTNLLWVLVHTDEGITGLGETFFGAETVETYVHEYIAPRVIGRDPLQIDLLAQDLVGYLGFRSSGAEVRGNSAFDIALWDIFGKATNQPIAQLLGGFSRREIRTYNTCAGTEYIKKATGQQTANYGLSGGKDYDDLNGFLHRADELAHSLLEDGITAMKIWPFDAAAEKTRGQYISMPDLKSALEPFEKIRKAVGDKMDIMVEFHSMWQLLPAMQIAKALTPYQTFWHEDPIKMDSLSSLTRYAAVSPAPISASETLGSRWAFRDLLETGAAGVVMLDISWCGGLSEARKIASMAEAWHLPVAPHDCTGPVVLCASTHLSLNAPNALVQESVRAFYKTWYRDLVTALPEVKNGMITVPPGAGLGMELHPDIEKTFTVSRRFSDAASI", "soluble on expression in E. coli": "not soluble"}, {"sequence": "MKSYPDPYRHFENLDSAETQNFAAEANAETRARFLENDKARALSDGILAQLQDTRQIPFCQEHRARMYHFHQDAEYPKGVYRVCTAATYRSGYPEWKILFSVADFDELLGDDVYLGGVSHLVEQPNRALLTLSKLGSDTAYTLEVDLEAGELVEGGFHFPAGKNHVSWRDENSVWVCPAWNERQLTQSGYPREVWLVERGKSFEESLPVYQIGEDGMMVNAWRYLDPQGSPIDLIEASDGFYTKTYLRVSAEGEAKPLNLPNDCDVVGYLAGHLLLTLRKDWN", "soluble on expression in E. coli": "not soluble"}]}]}
